The text below walks through data of patent US20160032005A1 (INSERM INSTITUT NATIONAL DE LA SANTE ET DE LA RECHERCHE …, published 2016).

The chains are these.
B1: Vangl2 in COS-7 cells (receptor)
chain: MDTESQYSGYSYKSGHSRSSRKHRDRRDRHRSKSRDGGRGDKSVTIQAPGEPLLDNESTRGDERDDNWGETTTVVTGTSEHSISHDDLTRIAKDMEDSVPLDCSRHLGVAAGATLALLSFLTPLAFLLLPPLLWREELEPCGTACEGLFISVAFKLLILLLGSWALFFRRPKASLPRVFVLRALLMVLVFLLVVSYWLFYGVRILDARERSYQGVVQFAVSLVDALLFVHYLAVVLLELRQLQPQFTLKVVRSTDGASRFYNVGHLSIQRVAVWILEKYYHDFPVYNPALLNLPKSVLAKKVSGFKVYSLGEENSTNNSTGQSRAVIAAAARRRDNSHNEYYYEEAEHERRVRKRRARLVVAVEEAFTHIKRLQEEEQKNPREVMDPREAAQAIFASMARAMQKYLRTTKQQPYHTMESILQHLEFCITHDMTPKAFLERYLAAGPTIQYHKERWLAKQWTLVSEEPVTNGLKDGIVFLLKRQDFSLVVSTKKVPFFKLSEEFVDPKSHKFVMRLQSETSV
notes: Vangl2 immunoprecipitated with 2G4 mAb from COS-7 cells

The target of test [1] is GFP-p62 with deletion of a region containing the LIR domain (256-370) (Homo sapiens, UniProt P42212 1-238 = GFP). The experiment in a line: immunoprecipitation with 2G4 mAb, COS-7 cells.
The test “Vangl2 in COS-7 cells” has as its target B1. Briefly: immunoprecipitation with 2G4 mAb, COS-7 cells.

On to B1, for which, in test [1], the binding result is given as “no binding”.

B2: EGFP-tagged p62 (1-122), PB1 domain alone (other)
chain: MASLTVKAYLLGKEDAAREIRRFSFCCSPEPEAEAEAAAGPGPCERLLSRVAALFPALRPGGFQAHYRDEDGDLVAFSSDEELTMAMSYVKDDIFRIYIKEKKECRRDHRPPCAQEAPRNMV
notes: not shown: EGFP tag
On to B2, for which the binding result with Vangl2 in COS-7 cells was “no binding”.
